# Measurements from publication PMC7570871, “Evaluation of a New ^177Lu-Labeled Somatostatin Analog for the Treatment of Tumors Expressing Somatostatin Receptor Subtypes 2 and 5” (Molecules, 2020).
# Assays:
# in vivo [1] = conditions: mouse, 100 pmol, total radioactivity
# Method: The mice were sacrificed 4 h p.i. and accumulation of the radiotracer in the tumors and in all organs of interest was quantified in a γ-counter.
# in vivo [2] = conditions: female, mouse, total radioactivity
# Method: The Veterinary Office (Department of Health) of the Cantonal Basel-Stadt approved the animal experiments (approval no. 2799) in accordance with the Swiss regulations for animal treatment. Female athymic Nude-Foxn1^nu/Foxn1^+ mice (Envigo, The Netherlands), 4–6 weeks old, were injected subcutaneously with 10^7 HEK-SST2 cells in the right shoulder and 10^7 HEK-SST5 cells in the left shoulder, freshly suspended in 100 μL sterile phosphate-buffered saline. The tumors were allowed to grow for 2–3 weeks.
# (§1) At the selected time points, the mice were sacrificed and the organs of interest were collected, rinsed, blotted, weighed and counted in a γ-counter. The results are expressed as a percentage of injected activity per gram (%IA/g) obtained by extrapolation from counts of an aliquot taken from the injected solution as a standard.
# as §1, with “preselected” for “selected”
# [3] = type: physicochemical; conditions: pH 7.4
# Method: To a pre-saturated mixture of 500 µL 1-octanol and 500 µL of phosphate-buffered saline (PBS) (pH 7.4), 10 µL of 1 µM of the ^177Lu-labeled conjugates were added. The solution was vortexed for 1 h to reach the equilibrium and then centrifuged (3000 rpm) for 10 min. From each phase, 100 µL of the aliquot was removed and measured in a γ-counter. Each measurement was repeated three times. Care was taken to avoid cross-contamination between the phases. The partition coefficient was calculated as the average of the logarithmic values (n = 3) of the ratio between the radioactivity in the organic and the PBS phase.
# [4] = athymic Nude-Foxn1^nu/Foxn1^+, 100 pmol, Pancreas uptake
# [5] = athymic Nude-Foxn1^nu/Foxn1^+, 100 pmol, Spleen uptake
# [6] = athymic Nude-Foxn1^nu/Foxn1^+, 100 pmol, Stomach uptake
# [7] = athymic Nude-Foxn1nu/Foxn1+, 10 pmol, Adrenal uptake
# [8] = athymic Nude-Foxn1nu/Foxn1+, 10 pmol, Blood uptake
# [9] = athymic Nude-Foxn1nu/Foxn1+, 10 pmol, Bone uptake
# [10] = athymic Nude-Foxn1nu/Foxn1+, 10 pmol, Heart uptake
# [11] = athymic Nude-Foxn1nu/Foxn1+, 10 pmol, Intestine uptake
# [12] = athymic Nude-Foxn1nu/Foxn1+, 10 pmol, Kidney uptake
# [13] = athymic Nude-Foxn1nu/Foxn1+, 10 pmol, Liver uptake
# [14] = athymic Nude-Foxn1nu/Foxn1+, 10 pmol, Lung uptake
# [15] = athymic Nude-Foxn1nu/Foxn1+, 10 pmol, Muscle uptake
# [16] = athymic Nude-Foxn1nu/Foxn1+, 10 pmol, Pancreas uptake
# [17] = athymic Nude-Foxn1nu/Foxn1+, 10 pmol, SST2-tumor uptake
# [18] = athymic Nude-Foxn1nu/Foxn1+, 10 pmol, SST5-tumor uptake
# [19] = athymic Nude-Foxn1nu/Foxn1+, 10 pmol, Spleen uptake
# [20] = athymic Nude-Foxn1nu/Foxn1+, 10 pmol, Stomach uptake
# [21] = athymic Nude-Foxn1nu/Foxn1+, 100 pmol, Adrenal uptake
# [22] = athymic Nude-Foxn1nu/Foxn1+, 100 pmol, Blood uptake
# [23] = athymic Nude-Foxn1nu/Foxn1+, 100 pmol, Bone (Femur) uptake
# [24] = athymic Nude-Foxn1nu/Foxn1+, 100 pmol, Femur uptake
# [25] = athymic Nude-Foxn1nu/Foxn1+, 100 pmol, Heart uptake
# [26] = athymic Nude-Foxn1nu/Foxn1+, 100 pmol, Intestine uptake
# [27] = athymic Nude-Foxn1nu/Foxn1+, 100 pmol, Kidney uptake
# [28] = athymic Nude-Foxn1nu/Foxn1+, 100 pmol, Liver uptake
# [29] = athymic Nude-Foxn1nu/Foxn1+, 100 pmol, Lung uptake
# [30] = athymic Nude-Foxn1nu/Foxn1+, 100 pmol, Muscle uptake
# [31] = athymic Nude-Foxn1nu/Foxn1+, 100 pmol, Pancreas uptake
# [32] = athymic Nude-Foxn1nu/Foxn1+, 100 pmol, SST2-tumor uptake
# [33] = athymic Nude-Foxn1nu/Foxn1+, 100 pmol, SST5-tumor uptake
# [34] = athymic Nude-Foxn1nu/Foxn1+, 100 pmol, Spleen uptake
# [35] = athymic Nude-Foxn1nu/Foxn1+, 100 pmol, Stomach uptake
structure (smiles),measurement,setting,value
"CC(C)[C@@H]1NC(=O)[C@H](CCCCN)NC(=O)[C@@H](Cc2c[nH]c3ccccc23)NC(=O)[C@H](Cc2ccc(O)c(I)c2)NC(=O)[C@@H](NC(=O)[C@@H](Cc2ccc(N)c(I)c2)NC(=O)CN2CCN(CC(=O)O)CCN(CC(=O)O)CCN(CC(=O)O)CC2)CSSC[C@@H](C(=O)N[C@H](C(N)=O)[C@@H](C)O)NC1=O [[^177Lu]Lu-DOTA-ST8950, metal not drawn]",tissue uptake at 4 h,in vivo [1]; Adrenal uptake,5.45 ± 2.26 %ID/g
same,tissue uptake at 4 h,in vivo [1]; Blood uptake,0.1 ± 0.02 %ID/g
same,tissue uptake at 4 h,in vivo [1]; Femur uptake,0.56 ± 0.24 %ID/g
same,tissue uptake at 4 h,in vivo [1]; Heart uptake,0.18 ± 0.03 %ID/g
same,tissue uptake at 4 h,in vivo [1]; Intestine uptake,1.35 ± 0.14 %ID/g
same,tissue uptake at 4 h,in vivo [1]; Kidney uptake,8.96 ± 1.39 %ID/g
same,tissue uptake at 4 h,in vivo [1]; Liver uptake,2.28 ± 0.2 %ID/g
same,tissue uptake at 4 h,in vivo [1]; Lung uptake,2.43 ± 1.21 %ID/g
same,tissue uptake at 4 h,in vivo [1]; Muscle uptake,0.15 ± 0.02 %ID/g
same,tissue uptake at 4 h,in vivo [1]; SST(-)-tumor uptake,0.7 ± 0.08 %ID/g
same,tissue uptake at 4 h,in vivo [1]; Spleen uptake,0.84 ± 0.06 %ID/g
same,tissue uptake at 4 h,in vivo [1]; Stomach uptake,4.89 ± 0.94 %ID/g
same,tissue uptake at 168 h,"in vivo [2]; athymic Nude-Foxn1^nu/Foxn1^+, 100 pmol, Liver uptake",0.54 ± 0.09 %ID/g
same,tissue uptake at 24 h,in vivo [2]; [4],1.68 ± 0.27 %ID/g
same,tissue uptake at 72 h,in vivo [2]; [4],0.72 ± 0.14 %ID/g
same,tissue uptake at 168 h,in vivo [2]; [4],0.37 ± 0.05 %ID/g
same,tissue uptake at 24 h,in vivo [2]; [5],0.36 ± 0.24 %ID/g
same,tissue uptake at 72 h,in vivo [2]; [5],0.38 ± 0.12 %ID/g
same,tissue uptake at 168 h,in vivo [2]; [5],0.27 ± 0.05 %ID/g
same,tissue uptake at 24 h,in vivo [2]; [6],2.61 ± 0.44 %ID/g
same,tissue uptake at 72 h,in vivo [2]; [6],1.66 ± 0.49 %ID/g
same,tissue uptake at 168 h,in vivo [2]; [6],0.99 ± 0.04 %ID/g
same,tissue uptake at 1 h,in vivo [2]; [7],6.01 ± 1.15 %ID/g
same,tissue uptake at 4 h,in vivo [2]; [7],5.37 ± 1.17 %ID/g
same,tissue uptake at 1 h,in vivo [2]; [8],1.3 ± 0.24 %ID/g
same,tissue uptake at 4 h,in vivo [2]; [8],0.15 ± 0.02 %ID/g
same,tissue uptake at 1 h,in vivo [2]; [9],1.35 ± 0.25 %ID/g
same,tissue uptake at 4 h,in vivo [2]; [9],1.12 ± 0.38 %ID/g
same,tissue uptake at 1 h,in vivo [2]; [10],0.84 ± 0.18 %ID/g
same,tissue uptake at 4 h,in vivo [2]; [10],0.2 ± 0.04 %ID/g
same,tissue uptake at 1 h,in vivo [2]; [11],3.08 ± 0.38 %ID/g
same,tissue uptake at 4 h,in vivo [2]; [11],2.29 ± 0.42 %ID/g
same,tissue uptake at 1 h,in vivo [2]; [12],11.7 ± 1.79 %ID/g
same,tissue uptake at 4 h,in vivo [2]; [12],10.8 ± 1.27 %ID/g
same,tissue uptake at 1 h,in vivo [2]; [13],2.73 ± 0.59 %ID/g
same,tissue uptake at 4 h,in vivo [2]; [13],2.2 ± 0.27 %ID/g
same,tissue uptake at 1 h,in vivo [2]; [14],7.12 ± 2.59 %ID/g
same,tissue uptake at 4 h,in vivo [2]; [14],3.81 ± 0.98 %ID/g
same,tissue uptake at 1 h,in vivo [2]; [15],0.4 ± 0.07 %ID/g
same,tissue uptake at 4 h,in vivo [2]; [15],0.13 ± 0.02 %ID/g
same,tissue uptake at 1 h,in vivo [2]; [16],5.99 ± 1.75 %ID/g
same,tissue uptake at 4 h,in vivo [2]; [16],3.21 ± 0.5 %ID/g
same,tissue uptake at 1 h,in vivo [2]; [17],12.1 ± 3.94 %ID/g
same,tissue uptake at 4 h,in vivo [2]; [17],10.3 ± 2.78 %ID/g
same,tissue uptake at 1 h,in vivo [2]; [18],1.94 ± 0.46 %ID/g
same,tissue uptake at 4 h,in vivo [2]; [18],1.52 ± 0.75 %ID/g
same,tissue uptake at 1 h,in vivo [2]; [19],1.82 ± 0.26 %ID/g
same,tissue uptake at 4 h,in vivo [2]; [19],0.96 ± 0.18 %ID/g
same,tissue uptake at 1 h,in vivo [2]; [20],9.68 ± 2.34 %ID/g
same,tissue uptake at 4 h,in vivo [2]; [20],6.03 ± 1.28 %ID/g
same,tissue uptake at 1 h,in vivo [2]; [21],4.23 ± 0.68 %ID/g
same,tissue uptake at 4 h,in vivo [2]; [21],5.21 ± 1.92 %ID/g
same,tissue uptake at 24 h,in vivo [2]; [21],3.81 ± 1.08 %ID/g
same,tissue uptake at 72 h,in vivo [2]; [21],2.86 ± 1.3 %ID/g
same,tissue uptake at 168 h,in vivo [2]; [21],1.84 ± 0.49 %ID/g
same,tissue uptake at 1 h,in vivo [2]; [22],0.96 ± 0.23 %ID/g
same,tissue uptake at 4 h,in vivo [2]; [22],0.09 ± 0.03 %ID/g
same,tissue uptake at 24 h,in vivo [2]; [22],0.02 %ID/g
same,tissue uptake at 72 h,in vivo [2]; [22],0.01 %ID/g
same,tissue uptake at 1 h,in vivo [2]; [23],0.74 ± 0.11 %ID/g
same,tissue uptake at 4 h,in vivo [2]; [23],0.49 ± 0.11 %ID/g
same,tissue uptake at 24 h,in vivo [2]; [24],0.3 ± 0.05 %ID/g
same,tissue uptake at 72 h,in vivo [2]; [24],0.19 ± 0.05 %ID/g
same,tissue uptake at 168 h,in vivo [2]; [24],0.11 ± 0.01 %ID/g
same,tissue uptake at 1 h,in vivo [2]; [25],0.69 ± 0.09 %ID/g
same,tissue uptake at 4 h,in vivo [2]; [25],0.17 ± 0.03 %ID/g
same,tissue uptake at 24 h,in vivo [2]; [25],0.08 ± 0.01 %ID/g
same,tissue uptake at 72 h,in vivo [2]; [25],0.06 ± 0.02 %ID/g
same,tissue uptake at 168 h,in vivo [2]; [25],0.04 ± 0.01 %ID/g
same,tissue uptake at 1 h,in vivo [2]; [26],1.95 ± 0.65 %ID/g
same,tissue uptake at 4 h,in vivo [2]; [26],1.14 ± 0.42 %ID/g
same,tissue uptake at 24 h,in vivo [2]; [26],0.51 ± 0.09 %ID/g
same,tissue uptake at 72 h,in vivo [2]; [26],0.28 ± 0.06 %ID/g
same,tissue uptake at 168 h,in vivo [2]; [26],0.12 ± 0.02 %ID/g
same,tissue uptake at 1 h,in vivo [2]; [27],~10 %ID/g
same,tissue uptake at 4 h,in vivo [2]; [27],~10 %ID/g
same,tissue uptake at 24 h,in vivo [2]; [27],5.99 ± 0.41 %ID/g
same,tissue uptake at 72 h,in vivo [2]; [27],3.2 ± 0.84 %ID/g
same,tissue uptake at 168 h,in vivo [2]; [27],1.42 ± 0.38 %ID/g
same,tissue uptake at 1 h,in vivo [2]; [28],2.6 ± 0.42 %ID/g
same,tissue uptake at 4 h,in vivo [2]; [28],2.19 ± 0.48 %ID/g
same,tissue uptake at 24 h,in vivo [2]; [28],1.23 ± 0.16 %ID/g
same,tissue uptake at 72 h,in vivo [2]; [28],0.85 ± 0.21 %ID/g
same,tissue uptake at 1 h,in vivo [2]; [29],3.9 ± 0.84 %ID/g
same,tissue uptake at 4 h,in vivo [2]; [29],1.69 ± 0.4 %ID/g
same,tissue uptake at 24 h,in vivo [2]; [29],1.16 ± 0.1 %ID/g
same,tissue uptake at 72 h,in vivo [2]; [29],0.46 ± 0.08 %ID/g
same,tissue uptake at 168 h,in vivo [2]; [29],0.23 ± 0.09 %ID/g
same,tissue uptake at 1 h,in vivo [2]; [30],0.3 ± 0.07 %ID/g
same,tissue uptake at 4 h,in vivo [2]; [30],0.1 ± 0.02 %ID/g
same,tissue uptake at 24 h,in vivo [2]; [30],0.06 %ID/g
same,tissue uptake at 72 h,in vivo [2]; [30],0.04 ± 0.01 %ID/g
same,tissue uptake at 168 h,in vivo [2]; [30],0.01 %ID/g
same,tissue uptake at 1 h,in vivo [2]; [31],6.36 ± 1.39 %ID/g
same,tissue uptake at 4 h,in vivo [2]; [31],4.38 ± 1.02 %ID/g
same,tissue uptake at 1 h,in vivo [2]; [32],14.2 ± 1.78 %ID/g
same,tissue uptake at 4 h,in vivo [2]; [32],15.5 ± 3.63 %ID/g
same,tissue uptake at 24 h,in vivo [2]; [32],9.32 ± 2.02 %ID/g
same,tissue uptake at 72 h,in vivo [2]; [32],4.22 ± 1.43 %ID/g
same,tissue uptake at 168 h,in vivo [2]; [32],0.79 ± 0.13 %ID/g
same,tissue uptake at 1 h,in vivo [2]; [33],1.78 ± 0.35 %ID/g
same,tissue uptake at 4 h,in vivo [2]; [33],1.87 ± 0.49 %ID/g
same,tissue uptake at 24 h,in vivo [2]; [33],0.88 ± 0.16 %ID/g
same,tissue uptake at 72 h,in vivo [2]; [33],0.35 ± 0.08 %ID/g
same,tissue uptake at 168 h,in vivo [2]; [33],0.08 ± 0.01 %ID/g
same,tissue uptake at 1 h,in vivo [2]; [34],1.29 ± 0.19 %ID/g
same,tissue uptake at 4 h,in vivo [2]; [34],0.68 ± 0.11 %ID/g
same,tissue uptake at 1 h,in vivo [2]; [35],5.63 ± 0.79 %ID/g
same,tissue uptake at 4 h,in vivo [2]; [35],4.94 ± 0.9 %ID/g
same,logD,[3],-1.2 ± 0.1
